Laboratory results reported in patent US20240209089A1.
Values joined by “and” are separate entries in the source; they are usually repeats but may differ in a detail not shown here. Identical values can stand only once.

Tests used:
Fc protein = assay: phage ELISA on coated Fc protein, blank control
[1] = biological target: CD8α-Fc fusion protein (human); assay: phage ELISA on coated CD8α-Fc, blank control
CD8α-Fc fusion protein (human), sequence (chain, as listed by the source): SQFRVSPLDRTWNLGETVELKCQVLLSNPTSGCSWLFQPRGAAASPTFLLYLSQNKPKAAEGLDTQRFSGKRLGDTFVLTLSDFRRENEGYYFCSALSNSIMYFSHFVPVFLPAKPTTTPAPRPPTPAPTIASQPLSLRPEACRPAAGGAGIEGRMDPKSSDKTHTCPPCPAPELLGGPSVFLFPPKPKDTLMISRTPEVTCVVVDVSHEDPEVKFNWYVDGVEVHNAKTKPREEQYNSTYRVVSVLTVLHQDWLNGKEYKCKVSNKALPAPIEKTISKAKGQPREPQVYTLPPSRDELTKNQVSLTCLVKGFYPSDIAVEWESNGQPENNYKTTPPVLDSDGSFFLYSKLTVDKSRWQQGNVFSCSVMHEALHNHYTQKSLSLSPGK

blank phage
OD450 (Fc protein): 0.093 and 0.068
OD450 [1]: 0.067
